*1 amine or outer side, *2 acyl side, *3 side chain or, on linkers, in order; H or OH if unused. Bridges are numbered along the chain shown (N, C = ends). Where no end group is shown, it is not given here. TCAN = N,N',N''-(nitrilotris(ethane-2,1-diyl))tris(2-chloroacetamide) scaffold, O=C(C[*:1])NCCN(CCNC(=O)C[*:2])CCNC(=O)C[*:3]
Molecular target: T1, Human IL-17A (human, UniProt Q16552 24-155)
T1 construct: Soluble IL-17A used at a fixed concentration (75 nM with tracer BCY13196) in the FP assay; also called CTLA-8
T1 sequence (looked up): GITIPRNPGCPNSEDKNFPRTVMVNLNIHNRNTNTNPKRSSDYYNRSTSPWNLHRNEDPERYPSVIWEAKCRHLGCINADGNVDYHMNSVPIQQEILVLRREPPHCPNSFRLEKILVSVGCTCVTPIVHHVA
Experiment: fluorescence polarization competition, 75 nM human IL-17A, 1 nM tracer BCY13196 as competitor, mean of n=3
Protocol: Affinity determination by fluorescence polarization (FP) competition. Bicycles were screened to determine affinity (Ki) in a fluorescence polarisation assay where in competition with a bicycle labelled with fluorescein (referred to as tracer) with a known affinity for IL-17A. Peptides were diluted to an appropriate concentration in assay buffer (PBS+0.01% Tween20, adjusted to pH7.4 using NaOH (1M)) with a maximum of 1% DMSO, then serially diluted 1 in 2 into assay buffer. Into black 384-well low volume plates, 5 μL of diluted peptide was added to the plate followed by 10 μL of IL-17A at a fixed concentration (75 nM IL-17A for tracer BCY13196, 50 nM IL-17A for tracer BCY13351), then 10 μL tracer added to a final concentration of 1 nM. Measurements were conducted on a BMG PHERAstar FS equipped with an “FP 485 520 520” optic module which excites at 485 nm and detects parallel and perpendicular emission at 520 nm. The PHERAstar FS was set at 25° C. with 200 flashes per well and a positioning delay of 0.1 second, with each well measured at 5 to 10 minute intervals for 60 minutes. The gain used for measurements was determined at the point of experiment on a tracer alone well. Data analysis was performed in Dotmatics where mP values were fit to the Cheng Prusoff equation in order to generate a Ki value. The tracers used was BCY13196: [Fl]-[…] […]

Ki: 0.488 µM
B1: BCY13061 (peptide)
peptide: ACPQDLELCTFLFGDCA
modifications: linker 2-9-16 via TCAN
notes: Synthetic bicyclic peptide cyclised on the TCAN scaffold
